The values below come from PMC6680207, “ZmpTAC12 binds single‐stranded nucleic acids and is essential for accumulation of the plastid‐encoded polymerase complex in maize”.

Data set [1] has as its target T1, rMBP-pTAC12 (ZmpTAC12) (Zea mays, UniProt B4FZ81 72-555).
T1 sequence: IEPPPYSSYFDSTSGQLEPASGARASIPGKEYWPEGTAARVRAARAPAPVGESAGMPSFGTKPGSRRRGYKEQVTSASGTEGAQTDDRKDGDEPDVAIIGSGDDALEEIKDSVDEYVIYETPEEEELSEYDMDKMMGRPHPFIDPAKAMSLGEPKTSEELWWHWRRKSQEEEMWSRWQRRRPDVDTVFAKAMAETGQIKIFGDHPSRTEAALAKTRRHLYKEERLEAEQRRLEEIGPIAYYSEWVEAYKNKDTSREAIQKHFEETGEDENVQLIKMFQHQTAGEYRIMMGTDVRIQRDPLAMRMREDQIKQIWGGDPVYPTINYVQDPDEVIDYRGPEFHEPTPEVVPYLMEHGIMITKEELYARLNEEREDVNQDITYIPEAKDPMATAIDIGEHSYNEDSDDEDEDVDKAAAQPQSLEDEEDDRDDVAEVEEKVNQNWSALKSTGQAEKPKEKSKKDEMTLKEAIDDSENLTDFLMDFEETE
In words: EMSA; 1 ug/ul heparin; c. 100 pM probe; EMSA; 1 ug/ul heparin (ssRNA assays), c. 100 pM radiolabeled 50mer; buffer, salt, pH and temperature not in the material. The note with it: protein: recombinant; tags: N-terminal MBP fusion; label: radiolabeled. A general note: Mobility shift assays separate free from complexed probe on a gel.

Data set [2] addresses T1, rMBP-pTAC12 (ZmpTAC12). Briefly: EMSA; c. 100 pM probe; EMSA; 1 ug/ul heparin (ssRNA assays), c. 100 pM radiolabeled 50mer; buffer, salt, pH and temperature not in the material. Conditions: protein: recombinant; tags: N-terminal MBP fusion; label: 5' end radiolabel (T4 PNK).
For data set [3], the target named is T1, rMBP-pTAC12 (ZmpTAC12). Briefly: EMSA; 100 pM dsDNA; EMSA; 1 ug/ul heparin (ssRNA assays), c. 100 pM radiolabeled 50mer; buffer, salt, pH and temperature not in the material. The note with it: protein: recombinant; tags: N-terminal MBP fusion; label: 5' end radiolabel (T4 PNK); blunt.

B1: psaAB-150 ssRNA (ssRNA)
RNA: GGUAAUUGCUCCAGUGAAUAACUAAAAAAAAAAAUAGAAGGACGGUAGAUAG
Take B1: the binding result in data set [1] is given as “binds”.
On to TAATTGCTCCAGTGAATAACTAAAAAAAAAAATAGAAGGACGGTAGATAG (ssDNA) [psaAB-150 ssDNA], for which the binding result in data set [2] is given as “binds”.

B2: psaAB-150 dsDNA (dsDNA)
DNA 1: TAATTGCTCCAGTGAATAACTAAAAAAAAAAATAGAAGGACGGTAGATAG
DNA 2: CTATCTACCGTCCTTCTATTTTTTTTTTTAGTTATTCACTGGAGCAATTA
Turning to B2, in data set [3], the binding result is reported as “no binding”.
